Experiments:
KLHL22^1–178 (human) = KLHL22^1–178 (human) (UniProt Q53GT1); test: SEC-MALS; WTC-015S5 column, low salt buffer; complexes at 2 mg/ml, KLHL22^1–178 and KLHL12^1–161 alone at 3 mg/ml
KLHL12^1–161 (human) = KLHL12^1–161 (human) (UniProt Q53G59); test: as above
Chain of KLHL12^1–161 (human) (Q53G59 1-161): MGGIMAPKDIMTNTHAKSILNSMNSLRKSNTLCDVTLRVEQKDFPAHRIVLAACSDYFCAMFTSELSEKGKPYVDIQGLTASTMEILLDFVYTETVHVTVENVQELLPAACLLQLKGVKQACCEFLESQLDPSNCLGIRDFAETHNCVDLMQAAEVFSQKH

Chain of KLHL22^1–178 (human) (Q53GT1 1-178): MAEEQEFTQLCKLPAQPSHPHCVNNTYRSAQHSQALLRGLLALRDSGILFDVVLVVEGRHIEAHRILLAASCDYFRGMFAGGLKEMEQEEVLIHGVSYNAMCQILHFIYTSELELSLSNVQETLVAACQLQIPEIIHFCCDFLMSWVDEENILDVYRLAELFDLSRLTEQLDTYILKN
Chain of CUL3^Δ1–24-RBX1 (Q13618 25-768, stated change not applied): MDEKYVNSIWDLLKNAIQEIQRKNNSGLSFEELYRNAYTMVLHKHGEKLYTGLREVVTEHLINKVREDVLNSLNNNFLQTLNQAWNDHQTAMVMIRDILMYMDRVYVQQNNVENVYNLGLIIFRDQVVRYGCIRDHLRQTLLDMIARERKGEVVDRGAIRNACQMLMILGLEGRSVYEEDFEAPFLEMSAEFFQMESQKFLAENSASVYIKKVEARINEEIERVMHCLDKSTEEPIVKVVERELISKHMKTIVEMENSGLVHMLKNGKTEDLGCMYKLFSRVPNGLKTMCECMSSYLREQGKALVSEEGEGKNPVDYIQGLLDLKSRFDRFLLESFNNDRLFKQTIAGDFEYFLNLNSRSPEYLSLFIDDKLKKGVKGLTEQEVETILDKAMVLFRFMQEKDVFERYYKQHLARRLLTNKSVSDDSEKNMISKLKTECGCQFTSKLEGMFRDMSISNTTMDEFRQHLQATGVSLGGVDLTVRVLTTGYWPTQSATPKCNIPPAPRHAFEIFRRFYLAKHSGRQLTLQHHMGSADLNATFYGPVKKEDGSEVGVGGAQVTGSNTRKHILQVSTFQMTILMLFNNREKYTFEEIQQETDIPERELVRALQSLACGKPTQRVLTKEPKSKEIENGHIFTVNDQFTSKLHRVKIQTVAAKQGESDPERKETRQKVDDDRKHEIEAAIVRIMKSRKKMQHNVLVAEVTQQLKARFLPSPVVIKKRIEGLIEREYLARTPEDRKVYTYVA
Chain of CUL3^Δ1–24-RBX1 (P62877 whole entry, stated change not applied): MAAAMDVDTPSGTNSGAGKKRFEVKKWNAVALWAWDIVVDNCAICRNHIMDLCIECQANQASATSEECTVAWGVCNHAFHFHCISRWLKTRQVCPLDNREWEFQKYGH
Chain of CUL3^WT-RBX1 (Q13618 whole entry): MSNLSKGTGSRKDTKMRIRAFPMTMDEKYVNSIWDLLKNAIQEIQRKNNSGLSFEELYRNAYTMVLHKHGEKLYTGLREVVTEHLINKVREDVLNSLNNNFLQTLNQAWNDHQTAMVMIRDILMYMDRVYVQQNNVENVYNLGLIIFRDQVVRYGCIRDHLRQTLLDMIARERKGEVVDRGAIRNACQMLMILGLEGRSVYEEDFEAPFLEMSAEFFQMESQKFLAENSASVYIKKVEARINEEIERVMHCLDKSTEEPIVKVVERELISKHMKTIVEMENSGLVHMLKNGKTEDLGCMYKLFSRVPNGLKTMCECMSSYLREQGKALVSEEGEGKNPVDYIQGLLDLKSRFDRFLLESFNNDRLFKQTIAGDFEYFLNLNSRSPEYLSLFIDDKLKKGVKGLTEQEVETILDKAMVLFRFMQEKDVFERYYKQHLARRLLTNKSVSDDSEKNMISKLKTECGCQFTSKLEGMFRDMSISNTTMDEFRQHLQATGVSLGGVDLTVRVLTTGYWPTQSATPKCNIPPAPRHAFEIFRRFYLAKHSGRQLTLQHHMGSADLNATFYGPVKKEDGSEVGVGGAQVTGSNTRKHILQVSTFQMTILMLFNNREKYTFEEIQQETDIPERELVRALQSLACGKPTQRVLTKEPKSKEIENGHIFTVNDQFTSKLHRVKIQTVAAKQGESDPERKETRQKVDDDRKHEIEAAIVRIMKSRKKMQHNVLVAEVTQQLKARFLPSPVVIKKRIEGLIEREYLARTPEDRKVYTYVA
Chain of CUL3^WT-RBX1 (P62877 whole entry): as the sequence (P62877 whole entry, stated change not applied) above

Row | stoichiometry N (CUL3-RBX1 per KLHL22^1–178 dimer) (KLHL22^1–178 (human)) | stoichiometry N (CUL3-RBX1 per KLHL12^1–161 dimer) (KLHL12^1–161 (human)) | Substance
1 | 2 | – | CUL3^WT-RBX1 (from UniProt Q13618 1-768; P62877 1-108) (complex)
2 | 1 | 1 | CUL3^Δ1–24-RBX1 (from UniProt Q13618 25-768; P62877 1-108) (complex)

Source: paper PMC11074293
